Test results taken from patent publication US20100048709A1 (UNIVERSITY OF BRITISH COLUMBIA, published 2010).

How the values were obtained:
[1] = target: T1, recombinant rat thioredoxin-fused AR ligand binding domain (PanVera, 48.4 kDa), P15207
T1 chain: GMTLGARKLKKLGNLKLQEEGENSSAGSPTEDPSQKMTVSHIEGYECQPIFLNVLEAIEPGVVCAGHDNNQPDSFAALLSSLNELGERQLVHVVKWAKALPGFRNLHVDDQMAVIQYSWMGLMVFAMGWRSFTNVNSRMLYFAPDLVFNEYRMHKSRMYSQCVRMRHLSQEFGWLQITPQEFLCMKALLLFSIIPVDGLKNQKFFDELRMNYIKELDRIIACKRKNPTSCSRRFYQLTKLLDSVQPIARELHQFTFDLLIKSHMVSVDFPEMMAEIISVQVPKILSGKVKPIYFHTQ

[2] = target: T2, recombinant rat thioredoxin-fused AR ligand binding domain (PanVera, 48.4 kDa) (rat, UniProt P15207 606-902); assay: cell-based or functional assay
T2 sequence (looked up): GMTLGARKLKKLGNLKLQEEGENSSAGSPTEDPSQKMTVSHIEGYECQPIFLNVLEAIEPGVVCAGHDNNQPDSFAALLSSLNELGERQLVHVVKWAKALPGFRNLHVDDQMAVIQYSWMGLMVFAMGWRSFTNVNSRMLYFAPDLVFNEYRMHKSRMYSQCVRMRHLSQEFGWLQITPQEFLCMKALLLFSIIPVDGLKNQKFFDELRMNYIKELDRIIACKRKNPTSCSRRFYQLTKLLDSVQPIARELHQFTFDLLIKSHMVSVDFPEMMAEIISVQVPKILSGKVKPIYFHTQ

apparent affinity for androgen (R1881) by the AR-LBD, hydroxylapatite pulldown ligand binding assay [2]: 2.1 fold
increase in bound R1881 at 100 nM R1881 [2]: 1.75 fold
increase in bound R1881 at 1000 nM R1881 [2]: 1.71 fold
B1: purified His-tagged-DDC protein (6x-His N-terminal fusion of dopa decarboxylase) (enzyme, human, UniProt P20711 2-480, looked up, not shown: small tags and cut ends)
chain: NASEFRRRGKEMVDYMANYMEGIEGRQVYPDVEPGYLRPLIPAAAPQEPDTFEDIINDVEKIIMPGVTHWHSPYFFAYFPTASSYPAMLADMLCGAIGCIGFSWAASPACTELETVMMDWLGKMLELPKAFLNEKAGEGGGVIQGSASEATLVALLAARTKVIHRLQAASPELTQAAIMEKLVAYSSDQAHSSVERAGLIGGVKLKAIPSDGNFAMRASALQEALERDKAAGLIPFFMVATLGTTTCCSFDNLLEVGPICNKEDIWLHVDAAYAGSAFICPEFRHLLNGVEFADSFNFNPHKWLLVNFDCSAMWVKKRTDLTGAFRLDPTYLKHSHQDSGLITDYRHWQIPLGRRFRSLKMWFVFRMYGVKGLQAYIRKHVQLSHEFESLVRQDPRFEICVEVILGLVCFRLKGSNKVNEALLQRINSAKKIHLVPCHLRDKFVLRFAICSRTVESAHVQRAWEHIKELAADVLRAERE
R1881 concentration required to 50% saturate total AR-LBD protein [1]: in the absence of His-DDC, an R1881 concentration of 883 nM was required to 50% saturate total AR-LBD protein, while in the presence of His-DDC a lower androgen amount of 425 nM was necessary
